From paper PMC6315291 come the findings set out here.

The assay concerns the target Recombinant human Pentraxin 3 (PTX3) (human) (UniProt P26022). Put plainly: ELISA. Background: In an ELISA, binding on a coated surface is turned into a signal by an enzyme label.
Chain of UniProt P26022 (P26022 18-381): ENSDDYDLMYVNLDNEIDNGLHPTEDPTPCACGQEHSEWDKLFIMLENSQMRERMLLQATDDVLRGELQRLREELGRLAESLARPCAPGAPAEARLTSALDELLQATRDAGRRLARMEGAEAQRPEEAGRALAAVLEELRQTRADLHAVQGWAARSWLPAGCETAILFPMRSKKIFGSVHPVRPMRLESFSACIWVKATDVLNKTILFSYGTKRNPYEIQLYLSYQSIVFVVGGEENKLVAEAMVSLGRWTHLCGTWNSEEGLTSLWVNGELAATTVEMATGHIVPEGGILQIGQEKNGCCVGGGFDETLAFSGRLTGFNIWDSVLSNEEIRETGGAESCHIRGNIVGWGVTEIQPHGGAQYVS

On to “Human TSP1 construct E123CaG-1 (type II repeats plus type III repeats and globular C-terminus) (domain or fragment)”, for which the increase of OD 450 nm over control buffer (% fold increase) was determined as 64.
